In patent US11732029B2, “Methods and compositions for the treatment of wounds” (The University of Chicago, priority 2017, dated 2023):

Columns and labels:
human lung fibroblasts = experiment: Cell proliferation assay with vWF HBD, fibroblasts; format: cell-based; conditions: vWF HBD coated plates, 72 hrs, in the presence of FGF-2
Method: Cell proliferation assays were performed as previously reported1. Briefly, human lung fibroblasts (Lonza) were cultured using FGM-2 medium (Lonza) (1000 cells/well) or human umbilical vein endothelial cells (HUVEC, Lonza) were cultured using EGM-2 medium (Lonza) (1000 cells/well) on 1 μg/mL vWF HBD pre-coated 96-well plates (Tissue culture treated, Falcon). Cell numbers were quantified after 72 hrs using a CyQUANT assay (Invitrogen).

PDGF-BB [1] = biological target: T1, PDGF-BB (Homo sapiens, UniProt P01127); experiment: Recombinant GF binding to the vWF recombinant protein and A1 HBD peptide (ELISA); conditions: plate coated with vWF protein, A1 domain or HBD peptide, 1 μg/mL GF
T1 construct: All growth factors (GFs) and chemokines were purchased in their mature forms; purchased PeproTech; host or cells: Escherichia coli
Method: (§1) ELISA tests were performed as described above. In brief, ELISA plates were coated with 1 μg/mL of FL-vWF (WT or R1341Q), 1 μg/mL of vWF A1 recombinant protein (U-Protein Express) or 1 μg/mL of vWF A1 HBD peptide (sequence […], (SEQ ID NO:50) chemically synthesized by Genscript) at 37° C. overnight. After blocking with 2% BSA solution containing PBS-T, 1 μg/mL of the recombinant human proteins VEGF-A121, VEGF-A165, PlGF-1, PlGF-2, PDGF-BB, FGF-2, CXCL-12α and CXCL-12γ were added. 1 μg/mL of BSA served as non-binding protein control. Bound GF or chemokine was detected with biotinylated antibodies for human VEGF-A, PlGF, PDGF-BB, FGF-2, or CXCL-12 (R & D Systems). The antibodies were detected by streptavidin-HRP (R & D Systems). Color development and the absorbance measurement were done as described above.

VEGF-A165 = biological target: T2, VEGF-A165 (Homo sapiens, UniProt P15692); experiment: as above; conditions: plate coated with vWF protein, A1 domain or HBD peptide, 1 μg/mL GF
T2 construct: All growth factors (GFs) and chemokines were purchased in their mature forms; purchased PeproTech; host or cells: Escherichia coli
T2 sequence (P15692 27-191 isoform P15692-4 limits assumed): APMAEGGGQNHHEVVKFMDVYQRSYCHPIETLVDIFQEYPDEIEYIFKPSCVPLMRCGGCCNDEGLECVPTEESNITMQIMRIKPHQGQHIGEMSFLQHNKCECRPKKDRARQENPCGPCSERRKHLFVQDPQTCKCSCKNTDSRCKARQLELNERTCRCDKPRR
Method: as §1

CXCL-12γ = biological target: T3, CXCL-12γ (Homo sapiens, UniProt P48061); experiment: as above; conditions: plate coated with vWF protein, A1 domain or HBD peptide, 1 μg/mL GF
T3 construct: All GFs and chemokines were purchased in their mature forms; purchased R & D Systems; host or cells: Escherichia coli
Method: as §1

VEGF-A121 = biological target: T4, VEGF-A121 (Homo sapiens, UniProt P15692); experiment: vWF binding to recombinant GFs (ELISA); design: All GFs and chemokines were purchased in their mature forms; purchased PeproTech; host or cells: Escherichia coli; conditions: non-binding reference
T4 sequence (P15692 27-147 isoform P15692-9 limits assumed): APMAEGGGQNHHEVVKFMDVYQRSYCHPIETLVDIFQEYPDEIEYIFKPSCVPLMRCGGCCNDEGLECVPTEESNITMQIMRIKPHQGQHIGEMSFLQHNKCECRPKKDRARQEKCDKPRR
Method: (§2) ELISA tests were performed as previously reported1. In brief, ELISA plates (med-binding, Greiner Bio-One) were coated with 50 nM GFs at 37° C. for 2 hrs. After blocking with 2% BSA solution containing PBS-T, 1 μg/mL of plasma-derived vWF (EMD Millipore) was added. Bound vWF was detected with 1 μg/mL of rabbit anti-human vWF antibody (Sino Biological). Then, HRP conjugated goat anti-rabbit antibody (Jackson ImmunoResearch) was added. After 60 min of incubation, 50 μL TMB substrate (Sigma-Aldrich) was added. The reaction was stopped by adding 25 μL of 2N H2SO4. Subsequently, the absorbance at 450 nm was measured and subtracted the absorbance at 570 nm.

FGF-2 = FGF-2 (Homo sapiens, UniProt P09038); experiment: vWF binding to recombinant GFs (ELISA); design: All GFs and chemokines were purchased in their mature forms; purchased PeproTech; host or cells: Escherichia coli; conditions: VEGF-A121 signal as baseline
Method: as §2

BMP-2 = biological target: T5, BMP-2 (Homo sapiens, UniProt P12643); experiment: vWF binding to recombinant GFs (ELISA); design: All GFs and chemokines were purchased in their mature forms; purchased PeproTech; host or cells: Escherichia coli; conditions: VEGF-A121 signal as baseline
T5 sequence (P12643 283-396): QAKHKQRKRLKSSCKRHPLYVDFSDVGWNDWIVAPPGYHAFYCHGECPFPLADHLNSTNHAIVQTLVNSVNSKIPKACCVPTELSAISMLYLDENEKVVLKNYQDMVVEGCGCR
Method: as §2

PlGF-2 = biological target: T6, PlGF-2 (Homo sapiens, UniProt P49763); experiment: vWF binding to recombinant GFs (ELISA); design: All GFs and chemokines were purchased in their mature forms; purchased PeproTech; host or cells: Escherichia coli; conditions: VEGF-A121 signal as baseline
T6 sequence (P49763 19-170 isoform P49763-3 limits assumed): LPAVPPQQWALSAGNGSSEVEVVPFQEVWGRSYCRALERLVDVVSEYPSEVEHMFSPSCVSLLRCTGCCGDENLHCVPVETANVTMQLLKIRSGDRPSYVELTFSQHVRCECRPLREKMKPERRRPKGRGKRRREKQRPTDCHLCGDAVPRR
Method: as §2

BMP-7 = biological target: T7, BMP-7 (Homo sapiens, UniProt P18075); experiment: vWF binding to recombinant GFs (ELISA); conditions: VEGF-A121 signal as baseline
T7 construct: All GFs and chemokines were purchased in their mature forms; purchased PeproTech; host or cells: eukaryotic cells (not further specified)
T7 sequence (P18075 293-431): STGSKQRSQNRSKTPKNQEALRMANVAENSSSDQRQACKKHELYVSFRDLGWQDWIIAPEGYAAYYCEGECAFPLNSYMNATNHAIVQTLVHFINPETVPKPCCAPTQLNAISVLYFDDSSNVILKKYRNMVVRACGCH
Method: as §2

FGF-1 = biological target: T8, FGF-1 (Homo sapiens, UniProt P05230); experiment: vWF binding to recombinant GFs (ELISA); conditions: VEGF-A121 signal as baseline
T8 construct: All GFs and chemokines were purchased in their mature forms; purchased PeproTech; host or cells: Escherichia coli
Method: as §2

PDGF-BB [2] = biological target: T1, PDGF-BB; experiment: vWF binding to recombinant GFs (ELISA); conditions: VEGF-A121 signal as baseline
Method: as §2

TGF-β1 = biological target: T9, TGF-β1 (Homo sapiens, UniProt P01137); experiment: vWF binding to recombinant GFs (ELISA); conditions: VEGF-A121 signal as baseline
T9 construct: All GFs and chemokines were purchased in their mature forms; purchased PeproTech; host or cells: eukaryotic cells (not specified)
Method: as §2

IGF-I = biological target: T10, IGF-I (Homo sapiens, UniProt P05019); experiment: vWF binding to recombinant GFs (ELISA); conditions: VEGF-A121 signal as baseline
T10 construct: All GFs and chemokines were purchased in their mature forms; purchased PeproTech; host or cells: Escherichia coli
Method: as §2

T1 sequence (P01127 82-190 limits assumed): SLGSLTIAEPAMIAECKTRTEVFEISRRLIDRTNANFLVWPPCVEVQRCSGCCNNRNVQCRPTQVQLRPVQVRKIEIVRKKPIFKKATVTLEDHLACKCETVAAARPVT
T8 sequence (P05230 16-155 limits assumed): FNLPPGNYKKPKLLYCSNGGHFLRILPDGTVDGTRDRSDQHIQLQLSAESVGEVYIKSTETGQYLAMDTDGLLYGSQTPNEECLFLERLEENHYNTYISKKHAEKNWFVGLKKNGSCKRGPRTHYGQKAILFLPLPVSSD
T9 sequence (P01137 279-390 limits assumed, species assumed): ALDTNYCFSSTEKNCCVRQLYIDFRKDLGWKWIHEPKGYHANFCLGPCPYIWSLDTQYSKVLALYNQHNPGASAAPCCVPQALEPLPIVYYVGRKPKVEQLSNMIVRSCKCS
FGF-2, sequence (P09038 143-288): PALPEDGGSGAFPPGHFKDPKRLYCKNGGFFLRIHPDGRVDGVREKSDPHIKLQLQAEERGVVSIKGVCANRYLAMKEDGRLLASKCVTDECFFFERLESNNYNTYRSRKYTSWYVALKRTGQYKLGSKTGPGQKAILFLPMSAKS
T3 sequence (P48061 22-119 isoform P48061-3): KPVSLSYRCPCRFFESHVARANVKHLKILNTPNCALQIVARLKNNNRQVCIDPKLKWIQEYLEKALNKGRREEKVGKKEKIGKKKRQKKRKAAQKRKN

| Substance | fibroblast proliferation (human lung fibroblasts) | binding to PDGF-BB (PDGF-BB [1]) | binding to VEGF-A165 (VEGF-A165) | binding to CXCL-12γ (CXCL-12γ) | vWF binding to VEGF-A121 (VEGF-A121) | vWF binding to FGF-2 (FGF-2) | vWF binding to BMP-2 (BMP-2) | vWF binding to PlGF-2 (PlGF-2) | vWF binding to BMP-7 (BMP-7) | vWF binding to FGF-1 (FGF-1) | vWF binding to PDGF-BB (PDGF-BB [2]) | vWF binding to TGF-β1 (TGF-β1) | vWF binding to IGF-I (IGF-I) |
| --- | --- | --- | --- | --- | --- | --- | --- | --- | --- | --- | --- | --- | --- |
| YIGLKDRKRPSELRRIASQVKYAC [vWF HBD] | did not significantly affect fibroblast proliferation | showed binding | showed binding | showed binding |  |  |  |  |  |  |  |  |  |
| vWF: human plasma-derived von Willebrand factor (EMD Millipore) |  |  |  |  | not | bound | strong binding | bound | not | not | bound | strong binding | Neither insulin-like growth factor-I (IGF-I) nor IGF-II bound |
